From paper PMC5027486 (Nucleic Acids Research, 2016) come the findings set out here.

B1: Pseudomonas aeruginosa DNA polymerase IV (Pol IV) (enzyme, UniProt Q9I534 1-349, looked up)
chain: MRKIIHIDCDCFYAALEMRDDPSLRGKALAVGGSPDKRGVVATCSYEARAYGVRSAMAMRTALKLCPDLLVVRPRFDVYRAVSKQIHAIFRDYTDLIEPLSLDEAYLDVSASPHFAGSATRIAQDIRRRVAEELHITVSAGVAPNKFLAKIASDWRKPDGLFVITPEQVDGFVAELPVAKLHGVGKVTAERLARMGIRTCADLRQGSKLSLVREFGSFGERLWGLAHGIDERPVEVDSRRQSVSVECTFDRDLPDLAACLEELPTLLEELDGRLQRLDGSYRPDKPFVKLKFHDFTQTTVEQSGAGRDLESYRQLLGQAFARGNRPVRLIGVGVRLLDLQGAHEQLRLF
B2: Pseudomonas aeruginosa mismatch repair protein MutS (natural protein, UniProt Q9HY08 1-855, looked up)
chain: MTDLSQHTPMMQQYFKLKHQHPDQLMFYRMGDFYELFYEDAKKAAKLLDITLTARGQSGGKAIPMAGIPFHSAEGYLAKLVKLGESVAICEQIGDPATSKGPVERQVVRIITPGTVSDEALLDERRDNLLAAILGDERLFGLAVLDITSGRFSVQEIKGWETLLAELERLNPAELLIPDDWPQGLPAEKRRGVRRRAPWDFDRDSAHKSLCQQFGTQDLKGFGCQNLTLAIGAAGCLLAYAKETQRTALPHLRSLRHDRLDDTVILDGASRRNLELDINLSGGRENTLQSVVDRCQTAMASRLMSRWLNRPLRDRAVLEARQESIACLLERYRFENLQPQLKEIGDLERILARIGLRNARPRDLARLRDALAALPDLQNAMTELEAPHLQALATTIGTYPELAELLAKAIIDNPPAVIRDGGVIKTGYDAELDELQALSENAGQFLMDLEAREKARTGLPNLKVGYNRIHGYFIELPRVQAEQAPADYIRRQTLKGAERFITPELKAFEDKALSAQSRALAREKALYEELLERLIGHLAPLQDSASALAELDVLANLAERALNLDLNRPRFVEHTCLHIEQGRHPVVEQVLETPFVANDLALDADTRMLVITGPNMGGKSTYMRQTALIVLLAHIGSFVPAARCELSLVDRIFTRIGSSDDLAGGRSTFMVEMSETANILHNATDKSLVLMDEVGRGTSTFDGLSLAWAAAEDLARTRAFTLFATHYFELTVLPESQPAVANVHLNATEHNERIVFLHHVLPGPASQSYGLAVAQLAGVPAPVIQRAREHLKRLETTSLPHEMPSQQSGKPASPMQSDLFASLPHPVIDELSRINPDDISPRQALDLLYAWKMRV
B3: Pseudomonas aeruginosa β clamp processivity factor (natural protein, UniProt Q9I7C4 1-367, looked up)
chain: MHFTIQREALLKPLQLVAGVVERRQTLPVLSNVLLVVEGQQLSLTGTDLEVELVGRVVLEDAAEPGEITVPARKLMDICKSLPNDVLIDIRVEEQKLLVKAGRSRFTLSTLPANDFPTVEEGPGSLNFSIAQSKLRRLIDRTSFAMAQQDVRYYLNGMLLEVNGGTLRSVATDGHRLAMCSLDAQIPSQDRHQVIVPRKGILELARLLTEQDGEVGIVLGQHHIRATTGEFTFTSKLVDGKFPDYERVLPRGGDKLVVGDRQQLREAFSRTAILSNEKYRGIRLQLSNGLLKIQANNPEQEEAEEEVQVEYNGGNLEIGFNVSYLLDVLGVIGTEQVRFILSDSNSSALVHEADNDDSAYVVMPMRL

The target in experiment [1] is B3. The experiment is described as follows: native gel or EMSA.
For experiment [2], the target named is B3. The experiment is described as follows: SPR.
Experiment [3] deals with B3. The experiment is described as follows: native gel or EMSA. This is another data set of the same source. A general note: In EMSA bound probe runs differently from free probe, usually more slowly.
Experiment [4] deals with B2. The experiment is described as follows: SPR.
In experiment [5] the target is B2. The experiment is described as follows: native gel or EMSA.

Consider MQSDLFA [MQSDLFA peptide (7-mer spanning the β clamp binding motif of MutS)], for which, in experiment [1], the binding result is recorded as “binds”.

By Kd is commonly meant a measure of binding affinity in units of concentration. Lower therefore signals higher affinity. As usually defined, the koff is the first-order rate constant of dissociation. A word on the kon: it is a measure of how fast the partners come together. Read a high kon as faster complex formation. Usually stoichiometry N stands for the number of molecules, sites or subunits per partner or assembly. In the case of B1, in experiment [2], binding was characterised by a dissociation constant (Kd) of 8.97 µM, the koff was 0.0052 s⁻¹ and the kon came to 580 M⁻¹ s⁻¹. In experiment [3], the Kd stood at 6.22 ± 0.51 µM and the “stoichiometry N” value turned out to be 1.09 ± 0.06.

Regarding B2, in experiment [3], the “stoichiometry N” value came to 4.

In experiment [4], B3 registered a koff of 0.111 s⁻¹ and a kon of 112000 M⁻¹ s⁻¹. Also, binding in experiment [5] was characterised by a dissociation constant (Kd) of 1.66 ± 0.09 µM.
